In US20220306736A1 (Y BIOLOGICS, published 2022):
Residue numbers refer to the chain shown, from its start.

B1: SA2283 (antibody, V domains shown)
VH: QVQLVESGGGLVKPGGSLRLSCAASGFTFSDYYMSWIRQAPGKGLEWVSYISSSGSTIYYADSVKGRFTISRDNAKNSLYLQMNSLRAEDTAVYYCARRYSAYETGYFDFWGQGTLVTVSS
VL: DIQMTQSPSSLSASVGDRVTITCRASQGISTYLNWYQQKPGKAPKLLIYSTSTLQTGVPSRFSGGGSGTDFTLTISSLQPEDFATYYCQQSYSAPPTFGPGTKVEIK
B2: SA2291 (antibody, V domains shown)
VH: QMQLVESGGGLVKPGGSLRLSCAASGFTFSDHYMSWIRQAPGKGLEWVSSISSGGGTIYYADSVKGRFTISRDNAKNSLYLQMNSLRAEDTAVYYCARREYDSDGHYYFDYWGQGILVTVSS
VL: SYELTQPPSVLVSPGQTARITCSGDALPKQYAYWYQQKPGQAPVLVMYKDNVRPSGIPERFSGSSSGTTVTLTISRVQAEDEADYYCQSVDSSDTSVVFGGGTKLTVL
B3: SA2390 (antibody, V domains shown)
VH: QVQLVESGGGLVQPGRSLRLSCAASGFTFDDYAMHWVRQAPGKGLEWISGISWNSGNIVYADSVKGRFTISRDNAKNSLYLQMNSLRAEDTAVYYCARETALAFDMWGPGTMVTVSS
VL: DIQMTQSPSSVSASVGDRVTITCRASQGISYWLAWYQQKPGIAPKLLIFASSRLHSGVPSRFNGSGSGTDFTLTINSLQPEDFATYYCLQATSFPYTFGQGTKLEIK
B4: SA2287 (antibody, V domains shown)
VH: QVQLVESGGGVVQPGRSLRLSCAASGFTFSSRGMHWVRQAPGKGLEWVALIWYHGSDDSYADSVKGRFTISRDNSKNMVYLQMNSLRAEDTAVYYCANLGATDGFDIWGQGTVVTVSS
VL: QSALTQPASVSGSPGQSITISCTGTSSDVSAYNYVSWYQQHPGKAPKLMIYGVSDRPSGVSFRFSGSKSGNTASLTISGLQAEDEAYYYCNSYTTSNTWVFGGGTKLTVL
B5: SA1975 (antibody, V domains shown)
VH: QVQLVESGAEIKKPGASMNVSCKASGYIFTNYYIHWVRQAPGQGLEWIGIIDPSGGSTTYAQKFQHRVTMTSDTSTSTVYMELIGLGSEDTAVYYCARDYWGSLDYWGQGTLVTVSS
VL: NFMLTQPHSVSESPGKTVTISCTRSSGSIASNYVQWYQQRPGSAPTIVIYENYLRPSEVPDRFSGSIDSSSNSASLTISGLKTEDEGDYYCQSYDSRNRNYVFGTGTKVTVL
B6: SA2290 (antibody, V domains shown)
VH: QMQLVESGAEVKKPGASVKVSCKASGYTFTSYGISWVRQAPGQGLEWMGWISAYNGNTNYAQKLQGRVTMTTDTSTSTAYMELRSLRSEDTAVYYCARDYWGSLDHWGQGALVTVSS
VL: B5 VL with E12G, A30D, S31I, V48I, N52D, Y53S, L54Q, P56T, E58G, S69R
B7: SA1956 (antibody, V domains shown)
VH: QVTLKESGPTLVKPTQTLTLTCTFSGFSLTTSGVAVAWIRQPPGKALEWLALIYWDGDERYSSSLKNRLTITKDTSKSQVVLTMTNMDPVDTATYYCARIRGYYDWGSYYSYGMDVWGQGTTVTVSS
VL: SYELTQPLSVSVALGQTARITCGGNNIGSKNVHWYQQKPGQAPVLVIYRDSNRPSGIPERFSGSNSGNTATLTISRAQAGDEADYYCQVWDSSTHVVFGGGTKLTVL
B8: SA1957 (antibody, V domains shown)
VH: QVTLRESGPTLVKPTQTLTLTCTFSGFSFNTPGEGVTWIRQPPGKALEWLALIYWDDEKHYNPSLNGRLTITKDTSKSQVVLTMTNMDPVDTATYYCARIRGYYDWGSYYSYGMDVWGQGTTITVSS
VL: B7 VL with N68D, R76G
B9: SA2285 (antibody, V domains shown)
VH: QVTLRESGPTLVKPTQTLTLTCTFRGFSLNTPGMGVAWIRQPPGKALEWLGLVFWDDDKTYRPSLRNRLTITKETSKSQVVLTMTNMDPVDTATYYCARIRGYYDWGSYYSYGMDVWGQGTTVTVSS
VL: SYELTQPLSVSVALGQTARITCGGNNIGSKNVHWYQQKPGQAPVLVIYRDSNRPSGIPERFSGSNSGNTATLTISGVEAGDEADYYCQVWDSNSDQYVFGTGSKVTVL
B10: SA2455 (antibody, V domains shown)
VH: QMQLVESGGGLVKPGGSLRLSCAASGFTFSDYYMSWIRQAPGKGLEWVSYISSSGSTIYYADSVKGRFTISRDNAKNSLYLQMNSLRAEDTAVYYCARPGYYYGLDVWGQGTTVTVSS
VL: DIQMTQSPSTLSASVGDRVTITCRASQSISSWLAWYQQKPGIAPKLLIYQASILDSGVPSRFSGSGSGTEFTLTISSLQPDDFATYYCQQYSSLWTFGPGTKVDIK
B11: SA2386 (antibody, V domains shown)
VH: QVQLVESGGGLVKPGGSLRLSCAASGSTFRVAWVNWVRQAPGKGLEWVGRIKSNSDGGTTDYATPMKDRFIISRDDSKNTVFLQMNSLRAEDTAVYYCARHGDANAYYYGMDVWGQGTKVTVSS
VL: QSALTQPASVSGSPGQSITISCTGTSSDVGGYNYISWYQQHPGKAPRLLIYDVSDRPSGVSNRFSGSKSANTASLTISGLQAEDEADYYCSSYASSSTLYVFGTGTKVTVL

Biological target: T1, hVSIG4(S)-hFc (human)
T1 construct: also called VGIG4(S)-Fc; hVSIG4 short-hFc (S)
Assay: western blot, 100 ng hVSIG4 short-hFc (FIG. 11B)
Description: (A) Binding to hVSIG4(S) and hVSIG4(L) was assayed by ELISA with the original scFv versions of the 11 human anti-VSIG4 antibodies. (B) Binding to hVSIG4(S) and hVSIG4(L) was assayed by western blotting with the 11 full-length human anti-VSIG4 antibodies. NRH: Non-reduced, heated; RH: Reduced, heated.
In each case, 100 ng of hVSIG4 long-hFc (L) and hVSIG4 short-hFc (S) were probed with the specific anti-VSIG4 antibody.

binding result | Binder
binds | B1
binds | B2
binds | B3
binds | B4
binds | B5
binds | B6
binds | B7
binds | B8
binds | B9
binds | B10
binds | B11
